This note sets out measurements from US20240076392A1, “ANTI-CD123 BINDING MOLECULES AND USES THEREOF” (IGM Biosciences, Inc., priority 2021, published 2024).

Broadly, the EC50 is the concentration needed to bring the measured effect to its halfway point. Lower therefore signals greater potency.

Residue numbers refer to the chain shown, from its start.

In assay [1] the target is human CD123 on CHO cells expressing human CD123 (human) (UniProt P26951). The experiment in a line: flow cytometry on CHO cells expressing human CD123, 4-parameter fit. A general note: In flow cytometry, cells or beads pass a laser one at a time.
human CD123 on CHO cells expressing human CD123 (human), sequence (P26951 19-378): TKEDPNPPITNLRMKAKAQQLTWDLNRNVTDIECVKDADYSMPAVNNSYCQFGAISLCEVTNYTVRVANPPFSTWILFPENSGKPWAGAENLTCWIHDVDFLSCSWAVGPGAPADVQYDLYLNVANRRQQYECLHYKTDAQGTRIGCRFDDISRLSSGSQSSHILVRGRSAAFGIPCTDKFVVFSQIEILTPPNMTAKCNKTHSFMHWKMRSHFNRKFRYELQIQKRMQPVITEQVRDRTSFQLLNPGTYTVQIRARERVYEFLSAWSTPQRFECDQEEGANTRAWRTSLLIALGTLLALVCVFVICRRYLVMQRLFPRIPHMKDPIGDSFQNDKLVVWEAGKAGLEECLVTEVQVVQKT
Assay [2] shares this target. The assay is described as follows: flow cytometry on CHO cells expressing human CD123, 4-parameter fit (direct binding; column headed IC50).

B1: h32716-1-1 IgG (antibody, V domains shown)
VH: QVQLVQSGAEVKKPGSSVKVSCKASGYIFTNYGMNWVRQAPGQGLEWMGWINTYTGESTYSADFKGRVTITADESTSTAYMELSSLRSEDTAVYYCARSGGYDPMDYWGQGTLVTVSS
VL: DIVMTQSPDSLAVSLGERATINCRASESVDNYGNTFMHWYQQKPGQPPKLLIYRASNLESGVPDRFSGSGSGTDFTLTISSLQAEDVAVYYCQQSNEDPPTFGQGTRLEIK
Consider B1, for which the Max binding intensity (MFI) in assay [1] is 950000 MFI. Also, the EC50 (half-maximal binding concentration) in assay [2] worked out at 7.4 nM.

B2: h32716-3-1 IgG (antibody, V domains shown)
VH: B1 VH with R38K, L45F, E46K, V68F, I70F, A72L
VL: B1 VL
For B2, in assay [1], the Max binding intensity (MFI) worked out at 940000 MFI. Moreover, in assay [2], the EC50 (half-maximal binding concentration) is 10 nM.

B3: h32716-2-1 IgG (antibody, V domains shown)
VH: B1 VH with R38K, V68F, I70F, A72L
VL: B1 VL
B3 displayed a Max binding intensity (MFI) in assay [1] of 930000 MFI. This molecule yielded an EC50 (half-maximal binding concentration) in assay [2] of 11 nM.

B4: 32716 IgG (antibody, V domains shown)
VH: QIQLVQSGPELKKPGETVKISCKASGYIFTNYGMNWVKQAPGKSFKWMGWINTYTGESTYSADFKGRFAFSLETSASTAYLHINDLKNEDTATYFCARSGGYDPMDYWGQGTSVTVSS
VL: DIVLTQSPASLAVSLGQRATISCRASESVDNYGNTFMHWYQQKPGQPPKLLIYRASNLESGIPARFSGSGSRTDFTLTINPVEADDVATYYCQQSNEDPPTFGAGTKLELK
Regarding B4, the Max binding intensity (MFI) in assay [1] was determined as 910000 MFI. This molecule gave an EC50 in assay [2] of 11 nM.

B5: h32716-4-2 IgG (antibody, V domains shown)
VH: QVQLVQSGPELKKPGASVKVSCKASGYIFTNYGMNWVRQAPGQGLEWMGWINTYTGESTYSADFKGRFVFSLDTSVSTAYLQISSLKAEDTAVYYCARSGGYDPMDYWGQGTLVTVSS
VL: DIQMTQSPSSLSASVGDRVTITCRASESVDNYGNTFMHWYQQKPGKAPKLLIYRASNLESGVPSRFSGSGSGTDFTFTISSLQPEDIATYYCQQSNEDPPTFGQGTKVEIK
On to B5, for which the Max binding intensity (MFI) in assay [1] stood at 980000 MFI. Moreover, the EC50 (half-maximal binding concentration) in assay [2] worked out at 6.8 nM.

B6: h32716-5-2 IgG (antibody, V domains shown)
VH: B5 VH with R38K
VL: B5 VL
The molecule B6 gave a Max binding intensity (MFI) in assay [1] of 1.1e+06 MFI. In addition, the EC50 in assay [2] is 7.2 nM.

B7: h32716-6-2 IgG (antibody, V domains shown)
VH: B5 VH with R38K, L45F, E46K
VL: B5 VL
Take B7: the Max binding intensity (MFI) in assay [1] was 1e+06 MFI. The same molecule registered an EC50 (half-maximal binding concentration) in assay [2] of 11 nM.
